Measurements taken from the Human Domainome abundance scans (Beltran et al. 2025).
± gives the uncertainty stated by the source.

B1: COUP transcription factor 1, residues 83 to 159; numbered along this chain, P10589 (parent)
chain: HIECVVCGDKSSGKHYGQFTCEGCKSFFKRSVRRNLTYTCRANRNCPIDQHHRNQCQYCRLKKCLKVGMRREAVQRG

Variants of: B1
Assay: abundance fitness (aPCA) (normalised: wild type 0, dead -1); higher = more abundant; growth selection in yeast, the domain comes from the species named
Conditions: Homo sapiens
Work on L36K yielded an abundance fitness of 0.126 ± 0.11.
With L36H the abundance fitness was 0.095 ± 0.38.
Variant L36C has an abundance fitness of -0.206 ± 0.14.
For L36D, the abundance fitness was -0.232 ± 0.22.
For V74N, the abundance fitness was -0.061 ± 0.065.
In the case of V74D, the abundance fitness is reported as -0.065 ± 0.056.
V74A gave an abundance fitness of 0.028 ± 0.041.
Work on V74F yielded an abundance fitness of -0.175 ± 0.06.
V74M showed an abundance fitness of -0.185 ± 0.055.
V74L showed an abundance fitness of -0.224 ± 0.04.
For V74E, the abundance fitness was -0.004 ± 0.042.
Variant S12P has an abundance fitness of -0.094 ± 0.059.
In the case of S12E, the abundance fitness is reported as 0.1 ± 0.06.
In the case of S12N, the abundance fitness is reported as 0.003 ± 0.065.
S12K gave an abundance fitness of -0.194 ± 0.074.
Work on S12R yielded an abundance fitness of -0.205 ± 0.051.
Work on S12G yielded an abundance fitness of 0.021 ± 0.048.
With S12Y the abundance fitness was -0.489 ± 0.11.
Variant S12A has an abundance fitness of -0.018 ± 0.05.
K66E showed an abundance fitness of 0.02 ± 0.044.
Variant K66T has an abundance fitness of 0.025 ± 0.046.
Variant K66P has an abundance fitness of -0.785 ± 0.11.
For K66G, the abundance fitness was -0.09 ± 0.034.
With K66N the abundance fitness was 0.058 ± 0.062.
For K66I, the abundance fitness was -0.079 ± 0.061.
With K66Q the abundance fitness was 0.055 ± 0.052.
For G13V, the abundance fitness was -0.288 ± 0.059.
Work on G13D yielded an abundance fitness of 0.053 ± 0.068.
In the case of G13R, the abundance fitness is reported as -0.243 ± 0.049.
G13Q gave an abundance fitness of 0.074 ± 0.059.
In the case of N43M, the abundance fitness is reported as -0.222 ± 0.13.
N43E showed an abundance fitness of 0.227 ± 0.065.
N43V showed an abundance fitness of 0.128 ± 0.071.
With N43I the abundance fitness was -0.335 ± 0.24.
With N43K the abundance fitness was 0.018 ± 0.081.
With N43F the abundance fitness was -0.22 ± 0.2.
In the case of N43W, the abundance fitness is reported as 0.015 ± 0.072.
N43Y showed an abundance fitness of -0.374 ± 0.23.
In the case of Y38M, the abundance fitness is reported as -0.059 ± 0.1.
Y38Q showed an abundance fitness of -0.464 ± 0.21.
Variant Y38A has an abundance fitness of -0.378 ± 0.11.
With Y38T the abundance fitness was -0.669 ± 0.17.
Variant P47R has an abundance fitness of -0.188 ± 0.044.
With P47D the abundance fitness was -0.271 ± 0.12.
With P47L the abundance fitness was -0.141 ± 0.056.
Variant P47S has an abundance fitness of -0.172 ± 0.063.
With P47I the abundance fitness was -0.137 ± 0.12.
In the case of C56V, the abundance fitness is reported as -0.758 ± 0.093.
Variant C56T has an abundance fitness of -1.13 ± 0.31.
In the case of C56K, the abundance fitness is reported as -0.926 ± 0.29.
With C56R the abundance fitness was -0.886 ± 0.091.
Work on C56M yielded an abundance fitness of -0.636 ± 0.17.
For C56Y, the abundance fitness was -0.612 ± 0.35.
Work on C56G yielded an abundance fitness of -0.786 ± 0.08.
Variant R71K has an abundance fitness of 0.104 ± 0.049.
R71G showed an abundance fitness of -0.083 ± 0.034.
R71S showed an abundance fitness of 0.018 ± 0.037.
With R71D the abundance fitness was 0.017 ± 0.056.
Variant R71C has an abundance fitness of -0.062 ± 0.062.
R71I gave an abundance fitness of 0.084 ± 0.057.
In the case of S31T, the abundance fitness is reported as -0.027 ± 0.1.
S31W gave an abundance fitness of -0.185 ± 0.074.
In the case of S31G, the abundance fitness is reported as -0.598 ± 0.079.
With S31C the abundance fitness was 0.075 ± 0.073.
With N54W the abundance fitness was -0.194 ± 0.053.
N54P gave an abundance fitness of 0.006 ± 0.066.
With N54Y the abundance fitness was -0.104 ± 0.088.
Variant N54M has an abundance fitness of 0.015 ± 0.061.
In the case of N54K, the abundance fitness is reported as -0.089 ± 0.082.
N54L gave an abundance fitness of -0.029 ± 0.043.
N54H gave an abundance fitness of -0.116 ± 0.11.
Work on D49F yielded an abundance fitness of 0.017 ± 0.062.
D49E showed an abundance fitness of -0.064 ± 0.076.
For N35E, the abundance fitness was 0.161 ± 0.093.
In the case of N35K, the abundance fitness is reported as 0.085 ± 0.097.
In the case of N35C, the abundance fitness is reported as 0.538 ± 0.32.
For N35M, the abundance fitness was -0.118 ± 0.12.
Variant N35T has an abundance fitness of -0.346 ± 0.15.
K14M gave an abundance fitness of 0.016 ± 0.13.
Work on K14G yielded an abundance fitness of -0.315 ± 0.14.
Work on K14L yielded an abundance fitness of 0.111 ± 0.08.
K14Y gave an abundance fitness of -0.068 ± 0.5.
For K14T, the abundance fitness was -0.113 ± 0.31.
For K14H, the abundance fitness was 0.524 ± 0.29.
With Q57C the abundance fitness was -0.093 ± 0.14.
Q57D showed an abundance fitness of 0.046 ± 0.095.
R60V gave an abundance fitness of -0.157 ± 0.037.
R60L showed an abundance fitness of 0.205 ± 0.034.
With R60C the abundance fitness was -0.007 ± 0.052.
With E72T the abundance fitness was -0.283 ± 0.056.
Work on E72D yielded an abundance fitness of -0.002 ± 0.06.
Work on L65K yielded an abundance fitness of -0.342 ± 0.06.
With L65V the abundance fitness was -0.019 ± 0.035.
Work on L65Q yielded an abundance fitness of 0.029 ± 0.048.
In the case of V6E, the abundance fitness is reported as -0.836 ± 0.13.
V6T gave an abundance fitness of -0.743 ± 0.15.
V6F gave an abundance fitness of -0.581 ± 0.28.
Variant V67Y has an abundance fitness of -0.18 ± 0.093.
Variant V67E has an abundance fitness of 0.013 ± 0.04.
Variant V67N has an abundance fitness of -0.125 ± 0.072.
For V67S, the abundance fitness was -0.117 ± 0.045.
V67R gave an abundance fitness of -0.16 ± 0.037.
In the case of H1A, the abundance fitness is reported as -0.078 ± 0.21.
H1K showed an abundance fitness of 0.374 ± 0.25.
H1R showed an abundance fitness of 0.013 ± 0.088.
H1S showed an abundance fitness of -0.33 ± 0.18.
Work on H1T yielded an abundance fitness of 0.074 ± 0.12.
C46D gave an abundance fitness of -0.572 ± 0.24.
For C46F, the abundance fitness was -0.501 ± 0.38.
Work on V5F yielded an abundance fitness of 0.199 ± 0.16.
V5Y showed an abundance fitness of 0.393 ± 0.15.
For V5W, the abundance fitness was 0.003 ± 0.09.
V5L showed an abundance fitness of 0.192 ± 0.093.
V5D gave an abundance fitness of -0.081 ± 0.13.
In the case of V5S, the abundance fitness is reported as 0.149 ± 0.073.
Work on I2D yielded an abundance fitness of 0.065 ± 0.27.
I2R gave an abundance fitness of -0.413 ± 0.094.
With C21Q the abundance fitness was -0.371 ± 0.12.
C21G gave an abundance fitness of -0.744 ± 0.054.
Work on C21L yielded an abundance fitness of -0.9 ± 0.15.
In the case of C21D, the abundance fitness is reported as -1.03 ± 0.26.
With C21N the abundance fitness was -0.61 ± 0.19.
Variant F27W has an abundance fitness of -0.733 ± 0.15.
For F27I, the abundance fitness was -0.86 ± 0.44.
Variant F27Q has an abundance fitness of -0.739 ± 0.2.
In the case of F27K, the abundance fitness is reported as -0.968 ± 0.33.
For F27N, the abundance fitness was -0.222 ± 0.29.
With F27V the abundance fitness was -0.692 ± 0.096.
With T20L the abundance fitness was -0.084 ± 0.05.
For T20S, the abundance fitness was 0.067 ± 0.046.
T20K showed an abundance fitness of -0.868 ± 0.19.
In the case of T20F, the abundance fitness is reported as -0.106 ± 0.15.
T20G showed an abundance fitness of -0.242 ± 0.039.
T20Q showed an abundance fitness of -0.382 ± 0.12.
Work on R53K yielded an abundance fitness of -0.218 ± 0.14.
Work on R53W yielded an abundance fitness of -0.288 ± 0.11.
In the case of R53S, the abundance fitness is reported as -0.178 ± 0.076.
With R53H the abundance fitness was -0.231 ± 0.17.
Q55C gave an abundance fitness of 0.008 ± 0.056.
For Q55A, the abundance fitness was -0.02 ± 0.042.
Work on Q55D yielded an abundance fitness of 0.123 ± 0.051.
Q55N gave an abundance fitness of -0.083 ± 0.075.
In the case of Q55R, the abundance fitness is reported as -0.074 ± 0.039.
E22R gave an abundance fitness of -0.504 ± 0.085.
Variant E22D has an abundance fitness of -0.025 ± 0.1.
Variant E22G has an abundance fitness of 0.089 ± 0.047.
Variant C64T has an abundance fitness of -0.758 ± 0.11.
Variant C64M has an abundance fitness of -0.059 ± 0.049.
Work on C64K yielded an abundance fitness of -0.866 ± 0.13.
For C64Q, the abundance fitness was -0.8 ± 0.13.
C64L gave an abundance fitness of -0.513 ± 0.06.
C64G gave an abundance fitness of -0.669 ± 0.049.
C64H gave an abundance fitness of -0.577 ± 0.16.
Variant K62R has an abundance fitness of -0.073 ± 0.033.
K62Y showed an abundance fitness of -0.512 ± 0.16.
K62S gave an abundance fitness of 0.011 ± 0.041.
K62V showed an abundance fitness of 0.086 ± 0.037.
K62D showed an abundance fitness of 0.053 ± 0.064.
For K62C, the abundance fitness was -0.257 ± 0.089.
For K25T, the abundance fitness was 0.011 ± 0.059.
With K25M the abundance fitness was 0.177 ± 0.059.
For K25L, the abundance fitness was -0.031 ± 0.058.
With K25R the abundance fitness was 0.095 ± 0.04.
In the case of G68W, the abundance fitness is reported as -0.666 ± 0.085.
G68I showed an abundance fitness of -0.494 ± 0.1.
In the case of G68Q, the abundance fitness is reported as -0.731 ± 0.1.
G68H showed an abundance fitness of -0.775 ± 0.18.
